The target of the assay is T1, recombinant human CD154 protein (human, UniProt P29965 47-261, limits assumed).
T1 construct: This protein was immobilised on the SPR chip; also called human CD154 antigen
T1 sequence: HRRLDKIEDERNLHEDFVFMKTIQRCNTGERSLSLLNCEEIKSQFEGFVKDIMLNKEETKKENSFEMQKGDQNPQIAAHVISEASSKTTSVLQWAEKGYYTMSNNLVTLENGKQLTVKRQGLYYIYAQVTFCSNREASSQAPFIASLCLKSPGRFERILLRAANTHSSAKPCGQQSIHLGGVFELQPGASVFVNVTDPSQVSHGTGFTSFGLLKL
In words: SPR (Reichert SR7500DC), CD154 immobilised on chip, antibody in flow. As for the experimental part:
The binding affinity KD of each of the RD-05 mouse antibody and IgG4 and IgG4 (L115E) RD-05 chimeric antibodies, produced as described above, for human CD154 antigen, was measured using an SPR method by Woojung BSC, Inc. (Suwon, Gyeonggi-do, Korea). Specifically, 17.5 μg/ml of recombinant human CD154 protein in immobilization buffer (10 mM sodium acetate, pH 6.0) was attached to a CMDH gold chip (Cat#13206066, Reichert Technologies, Depew, N.Y., USA) at a density of 2300 RU (resonance unit; 1 RU=1 pg/mm² surface area), after which 3.125 μg/ml of bovine serum albumin was attached at a density of 650 RU. The RD-05 antibody was diluted in PBS at […], 1.25, 2.5, 5, 10, 20, 40, 80, 160, 320, 2560 and 5120 nM. […] Based on the determined values, the KD values were calculated.

B1: RD-05 mouse antibody (antibody, V domains shown)
VH: DVQLQESGPGLVKPSQSLSLTCTVTGYSITSDYAWNWIRQFPGNKLEWMGYITYSGTTSYNPSLKSRISLTRDTSKNQFFLQLNAVTTEDTATYYCARSPYYGPWYFDVWGAGTTVTVSS
VL: DIVLTQSPASLTVSLGQRATISCKASQSVDYDGDSYLHWYQQKPGQPPKLLIYAASYLESGIPARFSGSGSGTDFTLNIHPVEEEDAATYYCQQSNEDPNTFGGGTKLEIKR
notes: Mouse monoclonal antibody from the hybridoma, kappa light chain; also called mouse RD-05 antibody; anti-human CD154 antibody
On to B1, for which the dissociation constant (Kd) was 37 nM.

By Kd is commonly meant the concentration at which binding is half-saturated.

The values above are taken from US20180194847A1 (SEOUL NATIONAL UNIVERSITY R AND DB FOUNDATION, published 2018).
